Laboratory results from patent US20260209362A1 (VIB VZW, published 2026).

Key:
[1] = target: T1, human IL-12Rβ2 expressed on cells (human, UniProt Q99665 24-862); assay: cell-based or functional assay
T1 sequence: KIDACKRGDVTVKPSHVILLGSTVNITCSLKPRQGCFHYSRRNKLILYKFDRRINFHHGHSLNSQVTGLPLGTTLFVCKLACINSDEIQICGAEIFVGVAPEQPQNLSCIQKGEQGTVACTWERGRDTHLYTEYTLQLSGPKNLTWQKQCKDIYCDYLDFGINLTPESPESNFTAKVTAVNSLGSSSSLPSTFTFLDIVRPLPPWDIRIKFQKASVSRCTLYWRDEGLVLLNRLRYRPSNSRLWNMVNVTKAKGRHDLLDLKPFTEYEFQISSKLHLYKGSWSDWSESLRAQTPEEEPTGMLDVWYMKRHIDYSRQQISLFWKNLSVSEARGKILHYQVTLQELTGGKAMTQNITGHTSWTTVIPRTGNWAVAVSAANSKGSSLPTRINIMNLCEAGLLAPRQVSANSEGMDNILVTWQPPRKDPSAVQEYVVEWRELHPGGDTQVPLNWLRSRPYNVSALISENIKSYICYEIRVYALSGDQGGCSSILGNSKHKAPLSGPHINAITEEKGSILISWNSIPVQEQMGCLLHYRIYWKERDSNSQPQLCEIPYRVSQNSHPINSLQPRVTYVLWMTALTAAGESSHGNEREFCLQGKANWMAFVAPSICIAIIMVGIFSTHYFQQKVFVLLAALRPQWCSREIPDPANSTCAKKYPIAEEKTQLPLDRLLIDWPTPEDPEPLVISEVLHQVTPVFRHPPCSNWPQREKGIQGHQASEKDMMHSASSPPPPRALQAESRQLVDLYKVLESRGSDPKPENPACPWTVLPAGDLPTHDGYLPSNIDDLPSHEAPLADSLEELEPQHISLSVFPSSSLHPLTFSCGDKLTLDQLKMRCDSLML

human IL-12Rβ2 = target: T2, human IL-12Rβ2 (human, UniProt Q99665 24-862); assay: flow cytometry, P.E. on transfected HEK293T cells
T2 construct: Expressed on HEK293T cells transiently transfected with a pcDNA3 plasmid (Genscript clone OHu21785); also called hIL-12RB2; IL-12 receptor β2 subunit
T2 sequence: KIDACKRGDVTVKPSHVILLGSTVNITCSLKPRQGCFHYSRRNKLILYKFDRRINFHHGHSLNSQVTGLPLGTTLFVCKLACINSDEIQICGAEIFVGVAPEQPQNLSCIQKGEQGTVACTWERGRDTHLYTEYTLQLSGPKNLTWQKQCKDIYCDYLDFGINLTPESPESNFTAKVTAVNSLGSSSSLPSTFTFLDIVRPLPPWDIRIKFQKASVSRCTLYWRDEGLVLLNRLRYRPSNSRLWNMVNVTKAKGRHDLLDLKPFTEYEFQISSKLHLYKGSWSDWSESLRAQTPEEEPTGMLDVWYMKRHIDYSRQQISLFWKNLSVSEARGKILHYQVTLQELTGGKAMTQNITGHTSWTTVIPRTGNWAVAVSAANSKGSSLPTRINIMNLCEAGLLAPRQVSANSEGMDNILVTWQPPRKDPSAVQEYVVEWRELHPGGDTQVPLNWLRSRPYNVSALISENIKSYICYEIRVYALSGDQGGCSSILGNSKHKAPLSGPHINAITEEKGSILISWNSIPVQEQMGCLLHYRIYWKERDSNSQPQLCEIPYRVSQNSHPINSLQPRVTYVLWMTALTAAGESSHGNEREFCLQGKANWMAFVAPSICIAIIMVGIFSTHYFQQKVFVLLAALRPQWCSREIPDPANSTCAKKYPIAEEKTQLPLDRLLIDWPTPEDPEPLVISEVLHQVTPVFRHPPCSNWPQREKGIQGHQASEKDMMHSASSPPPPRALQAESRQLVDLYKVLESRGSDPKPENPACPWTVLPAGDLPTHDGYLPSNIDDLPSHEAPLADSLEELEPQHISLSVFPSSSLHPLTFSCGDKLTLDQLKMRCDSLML

mouse IL-12Rβ2 = target: T3, mouse IL-12Rβ2 (mouse, UniProt P97378 24-874); assay: flow cytometry, P.E. on transfected HEK293T cells
T3 construct: Expressed on HEK293T cells transiently transfected with a pcDNA3 plasmid (Genscript clone OMu01776); also called mIL-12RB2; NP_032380.1
T3 sequence: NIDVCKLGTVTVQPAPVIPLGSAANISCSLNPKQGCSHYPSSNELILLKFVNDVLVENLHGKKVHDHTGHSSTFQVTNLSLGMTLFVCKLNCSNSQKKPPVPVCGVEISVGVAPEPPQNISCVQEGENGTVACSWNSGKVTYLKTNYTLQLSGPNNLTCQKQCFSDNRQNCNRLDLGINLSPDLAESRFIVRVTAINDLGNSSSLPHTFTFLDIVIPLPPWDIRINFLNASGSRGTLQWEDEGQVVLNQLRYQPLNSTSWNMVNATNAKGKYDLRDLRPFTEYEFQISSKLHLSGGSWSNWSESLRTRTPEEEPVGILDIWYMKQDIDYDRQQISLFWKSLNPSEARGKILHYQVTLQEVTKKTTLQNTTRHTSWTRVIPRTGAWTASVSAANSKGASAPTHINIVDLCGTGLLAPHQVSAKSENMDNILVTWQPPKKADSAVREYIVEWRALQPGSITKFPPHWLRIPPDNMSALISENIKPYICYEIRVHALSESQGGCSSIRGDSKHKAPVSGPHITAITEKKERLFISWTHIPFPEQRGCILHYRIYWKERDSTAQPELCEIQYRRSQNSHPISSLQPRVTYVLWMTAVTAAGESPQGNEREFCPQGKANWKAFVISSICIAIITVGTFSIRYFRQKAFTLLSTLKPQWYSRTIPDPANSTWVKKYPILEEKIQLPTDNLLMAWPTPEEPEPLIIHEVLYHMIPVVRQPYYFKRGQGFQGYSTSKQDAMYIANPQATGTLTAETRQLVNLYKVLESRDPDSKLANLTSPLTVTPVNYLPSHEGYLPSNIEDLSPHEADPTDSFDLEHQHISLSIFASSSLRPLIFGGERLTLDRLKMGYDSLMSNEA

| Binder | % Specific Cell Lysis at 0.025 ug/mL [1] | % Specific Cell Lysis at 0.00125 ug/mL [1] | % Specific Cell Lysis at 0.5 ug/mL [1] | % Specific Cell Lysis at 10 ug/mL [1] | % cells bound (human IL-12Rβ2) | dMFI (human IL-12Rβ2) | % cells bound (mouse IL-12Rβ2) | dMFI (mouse IL-12Rβ2) |
| --- | --- | --- | --- | --- | --- | --- | --- | --- |
| anti-IL-12Rβ2-VHH-Fc clone 20432 with a wildtype IgG1 Fc sequence (Fc fusion) QVQLQESGGGLVQPGGSLRLSCAASGFTFSTSGMHWFRQAPGKGLEWVSSIGATVDNSYYASSVKGRFTISRDNAKNTLYLLMNSLKSEDTAVYYCSKDPTGSSRGQGTQVTVSSAPELLGGPSVFLFPPKPKDTLMISRTPEVTCVVVDVSHEDPEVKFNWYVDGVEVHNAKTKPREEQYNSTYRVVSVLTVLHQDWLNGKEYKCKVSNKALPAPIEKTISKAKGQPREPQVYTLPPSRDELTKNQVSLTCLVKGFYPSDIAVEWESNGQPENNYKTTPPVLDSDGSFFLYSKLTVDKSRWQQGNVFSCSVMHEALHNHYTQKSLSLSPGK | 54.3% |  |  |  |  |  |  |  |
| anti-IL-12Rβ2-VHH-FcDE clone 20438 (Fc fusion) QVQLQESGGGLVQPGGSLRLSCTASGFAFSTYWMYWIRQSPEKGFEWVSVVNTGGDITYYADSVKGRFTISRDNAKNTLYLQMNSLKPEDTALYYCARDRTTMSYTRTYYRGGQGTQVTVSSAPELLGGPDVFLFPPKPKDTLMISRTPEVTCVVVDVSHEDPEVKFNWYVDGVEVHNAKTKPREEQYNSTYRVVSVLTVLHQDWLNGKEYKCKVSNKALPAPEEKTISKAKGQPREPQVYTLPPSRDELTKNQVSLTCLVKGFYPSDIAVEWESNGQPENNYKTTPPVLDSDGSFFLYSKLTVDKSRWQQGNVFSCSVMHEALHNHYTQKSLSLSPGK |  | 49.5% | 63.4% | 66.9% |  |  |  |  |
| anti-IL-12Rβ2-VHH-FcDE clone 21050 (Fc fusion) QVQLQESGGGLVQAGGSLRLSCAASGRTFNNYAMAWFRQAPGKEREFIAAITRSDTTLYIDSVKGRFTISRDNAKNTVALQMNSLKPEDTAVYYCAAGMPYSYSDYPRDSKYDYWGRGTQVTVSSAPELLGGPDVFLFPPKPKDTLMISRTPEVTCVVVDVSHEDPEVKFNWYVDGVEVHNAKTKPREEQYNSTYRVVSVLTVLHQDWLNGKEYKCKVSNKALPAPEEKTISKAKGQPREPQVYTLPPSRDELTKNQVSLTCLVKGFYPSDIAVEWESNGQPENNYKTTPPVLDSDGSFFLYSKLTVDKSRWQQGNVFSCSVMHEALHNHYTQKSLSLSPGK | 50.1% | 42.4% | 61.3% | 63.7% |  |  |  |  |
| anti-IL-12Rβ2-VHH-FcDE clone 21053 (Fc fusion) QVQLQESGGGLVQAGGSLRLSCAASGRTFSNYAMAWFRQAPGTEREFVAGLSGSGGDTEFYDDSVKGRFAISRDSAKNTVWLQMNSLKPEDTAVYYCAAATHVVVHYGLVRRRGTYDYWGQGTQVTVSSAPELLGGPDVFLFPPKPKDTLMISRTPEVTCVVVDVSHEDPEVKFNWYVDGVEVHNAKTKPREEQYNSTYRVVSVLTVLHQDWLNGKEYKCKVSNKALPAPEEKTISKAKGQPREPQVYTLPPSRDELTKNQVSLTCLVKGFYPSDIAVEWESNGQPENNYKTTPPVLDSDGSFFLYSKLTVDKSRWQQGNVFSCSVMHEALHNHYTQKSLSLSPGK | 51.6% | 46.5% | 64.7% | 73.3% |  |  |  |  |
| anti-IL-12Rβ2-VHH-FcDE clone 21060 (Fc fusion) QVQLQESGGGLVQAGGSLSLSCAASGSAFRLNFMGWYRQAPGKQRELVAAINSGGTEIYHDSVKGRFTISRDNADSTVWLQMNSLKPDDTAVYYCAADRGISWSKLAGGMDYWGKGTQVTVSSAPELLGGPDVFLFPPKPKDTLMISRTPEVTCVVVDVSHEDPEVKFNWYVDGVEVHNAKTKPREEQYNSTYRVVSVLTVLHQDWLNGKEYKCKVSNKALPAPEEKTISKAKGQPREPQVYTLPPSRDELTKNQVSLTCLVKGFYPSDIAVEWESNGQPENNYKTTPPVLDSDGSFFLYSKLTVDKSRWQQGNVFSCSVMHEALHNHYTQKSLSLSPGK | 63.9% |  | 73.5% | 75.5% |  |  |  |  |
| anti-IL-12Rβ2-VHH-FcDE clone 21062 (Fc fusion) QVQLQESGGGLVQPGGSLRLSCAASGISSSRLHVGWFRQSPGKEREFVAAISLSGGTQAYTDSVKGRFTISGDNVKNTAYLQMNSLRPEDTAVYYCAARERFIWTWSDLTYDYWGQGTQVTVSSAPELLGGPDVFLFPPKPKDTLMISRTPEVTCVVVDVSHEDPEVKFNWYVDGVEVHNAKTKPREEQYNSTYRVVSVLTVLHQDWLNGKEYKCKVSNKALPAPEEKTISKAKGQPREPQVYTLPPSRDELTKNQVSLTCLVKGFYPSDIAVEWESNGQPENNYKTTPPVLDSDGSFFLYSKLTVDKSRWQQGNVFSCSVMHEALHNHYTQKSLSLSPGK |  | 52.7% | 60.9% | 69.5% |  |  |  |  |
| anti-IL-12Rβ2 VHH clone 3CAHM11 (VHH, not shown: small tags and cut ends, periplasmic extract) VHH: QVQLQESGGGLVQAGGSLRLSCAASGRTFNNYAMAWFRQAPGKEREFIAAITRSDTTLYIDSVKGRFTISRDNAKNTVALQMNSLKPEDTAVYYCAAGMPYSYSDYPRDSKYDYWGRGTQVTVSS |  |  |  |  | 37.6% | 784 | 7.51% | 294 |
| anti-IL-12Rβ2 VHH clone 3CRHM49 (VHH, not shown: small tags and cut ends, periplasmic extract; also called 21058) VHH: QVQLQESGGGLVQAGGSLRLSCAASGRTFSNYAMAWFRQAPGTEREFVAGLSGSGGDTAFYDNSVMGRFTISRDSAKNTMWLQINNLKPEDTAVYYCAAATHVVVSYGLVRRRGTYDYWGQGTQVTVSS |  |  |  |  | 36% | 759 | 17.1% | 421 |
| anti-IL-12Rβ2 VHH clone 3CRHM14 (VHH, not shown: small tags and cut ends, periplasmic extract) VHH: QVQLQESGGGLVQAGGSLRLSCAASGRTFSNYAMAWFRQAPGTEREFVAGLSGSGGDTEFYDDSVKGRFAISRDSAKNTVWLQMNSLKPEDTAVYYCAAATHVVVHYGLVRRRGTYDYWGQGTQVTVSS |  |  |  |  | 35.8% | 689 | 18.6% | 412 |
| anti-IL-12Rβ2 VHH clone 3CRHM18 (VHH, not shown: small tags and cut ends, periplasmic extract) VHH: QVQLQESGGGLVQDGGSLRLSCAASGRTFSNYAMAWFRQAPGTEREFVAGLSGSGGDTAFYDNSVMGRFTISRDSAKNTMWLQINNLKPEDTAVYYCAAATHVVVSYGLVRKRGTYDYWGQGTQVTVSS |  |  |  |  | 36.7% | 767 | 15.3% | 369 |
| anti-IL-12Rβ2 VHH clone 3CRHM35 (VHH, not shown: small tags and cut ends, periplasmic extract; also called 21057) VHH: QVQLQESGGGLVQAGGSLRLSCAASGRTFSNYAMAWFRQAPGTEREFVAGLSGSGGDTAFYDNSVMGRFTISRDSAKNTMWLQINNLKPEDTAVYYCAAATHVVVNYGLVRRRGTYDYWGQGTQVTVSS |  |  |  |  | 37.3% | 826 | 16% | 425 |
| anti-IL-12Rβ2 VHH clone 3CRHM200 (VHH, not shown: small tags and cut ends, periplasmic extract; also called 21064) VHH: QVQLQESGGGLVQPGGSLRLSCAASGRTFSNYAMAWFRQAPGTEREFVAGLSGSGGDTAFYDNSVMGRFTISRDSAKNTMWLQINNLKPEDTAVYYCAAATHVVVSYGLVRRRGTYDYWGQGTQVTVSS |  |  |  |  | 35.3% | 694 | 17.2% | 470 |
| anti-IL-12Rβ2 VHH clone 3CRHM85 (VHH, not shown: small tags and cut ends, periplasmic extract; also called 21061) VHH: QVQLQESGGGLVQPGGSLRLSCAASRRTFSKHAMAWFRQAPGKEREFVAVVRWSGIITYYADSVKGRFTISRDDAKNTVYLQMDSLKPEDTAVYYCAAGDYRGNGYYVPGMYDYWGQGTQVTVSS |  |  |  |  | 31.2% | 676 | 0.74% | 157 |
